Measured values: patent US20230374148A1, “BINDING MOLECULES THAT MULTIMERISE CD45” (UCB BIOPHARMA SRL, priority 2020, published 2023)

Test system: Human whole blood
Experiment: Cytokine release in whole blood at 24 hrs, MSD assay
Format: cell-based
Description: Human whole blood (Lithium heparin tubes) was taken from one donor (HTA #031219-06) at UCB Pharma Slough, UK according to approved ethical sample collection protocol.
In a Greiner 96-well non-binding microplate, Fab-X and Fab-Y combination 6294-X/4133-Y was added to PBS to give a Fab-KD-Fab concentration of 2000 nM. Similarly, stocks of 4133-6294 BYbe and NegCtrl BYbe were prepared in PBS at 2000 nM. The microplate was incubated for 1 hr at 37° C., 5% CO2. Following the incubation, Fab-KD-Fab and BYbe reagents were then serially diluted in PBS 1 in 5, seven times to produce to form an 8-point dose curve.
12.5 μl of Fab-KD-Fab or BYbe dilution was transferred into Corning Costar 96-well, cell culture treated, U-shaped-bottom microplate (cat no. 07-200-95) and 237.5 μl of whole blood added to each well. Final well concentrations of Fab-KD-Fab or BYbes were 100-0.00128 nM. […]
Measurement of cytokines was carried out using the V-PLEX Human Proinflammatory Panel I (4-Plex) (IFN-γ, IL-1β, IL-6, TNF-α, cat no. K15052D, Meso Scale Discovery) according to manufacturer's instructions. […] The plates were washed as before, and 150 μl of read buffer (diluted 1 in 2 in dH2O) was added to each well. The plates were then analysed on a SECTOR Imager 6000 (Meso Scale Discovery).

Molecule: Campath: anti-CD52, clinical grade, indicated by FDA for B-cell Chronic Lymphocytic Leukaemia; positive control [reference compound]
- levels of IL-1β (Campath 10 μg/ml, other reagents 100-0.00128 nM): marked level

B1: 4133-6294 BYbe: anti-CD45 BYbe (Fab-scFv): 4133 Fab HC-G4S linker-6294 scFv heavy chain paired with 4133 light chain (antibody)
heavy: QEQLVESGGGLVQPEGSLTLTCTASGFSFSGNYYMCWVRQAPGKGLEWIGCLYTGSSGSTYYASWAKGRFTISKTSSTTVTLQMTSLTAADTATYFCARDLGYEIDGYGGLWGQGTLVTVSSGQPKAPSVFPLAPCCGDTPSSTVTLGCLVKGYLPEPVTVTWNSGTLTNGVRTFPSVRQSSGLYSLSSVVSVTSSSQPVTCNVAHPATNTKVDKTVAPSTCSKPGGGGSGGGGSEVQLVESGAELARPGASVKMSCKASGYTFTSYTMHWVKQRPGQCLEWIGYINPSSGYTEYNQKFKDKTTLTADKSSSTAYLQLSSLTSEDSAVYYCARVGDGFYPSWLAYWGQGTLVTVSSGGGGSGGGGSGGGGSGGGGSDIQMTQSPKFLLVSAGDRVTITCKASQSVRNDVAWYQQKPGQSPKLLIFYASKRYTGVPDRFTGSGYGTDFTFTISTVQAEDLAVYFCQQDYSSPTTFGCGTKLEIK
light: AQVLTQTPSPVSAVVGGTVSISCQASQSVYNNNNLSWYQQKPGQPPKLLIYDASKLASGVPSRFKGSGSGTQFTLTISGVQCDDAATYYCLGGYYSSGWYFAFGGGTKVVVKRTPVAPTVLIFPPAADQVATGTVTIVCVANKYFPDVTVTWEVDGTTQTTGIENSKTPQNSADCTYNLSSTLTLTSTQYNSHKEYTCKVTQGTTSVVQSFNRGDC
- induction of inflammatory cytokines (IFN-γ, IL-6, TNF-α) (100-0.00128 nM, compared with PBS- and NegCtrl BYbe-treated wells): little or no induction
